This is an account of results in patent publication US20030125523A1 (VEGENICS, published 2003).

Assay [1] addresses NP-1 expressed on PAE-NP-1 cells (UniProt O14786). Put plainly: competition of 125I-hVEGF165 (1 ng/ml) binding to PAE-NP-1 cells by 20 µg/ml GST fusion.
In assay [2] the target is T1, soluble Neuropilin-1-Ig fusion protein (extracellular domain of mouse NP-1 fused to the human IgG Fc-part) (mouse; human, UniProt P97333 22-856).
T1 construct: extracellular domain; Made in transfected 293T cells and captured on protein A sepharose; also called NP-1-Ig; soluble NP-1-Ig; not shown: human IgG Fc-part encoded by the pIgplus vector (Ingenius)
T1 sequence (looked up): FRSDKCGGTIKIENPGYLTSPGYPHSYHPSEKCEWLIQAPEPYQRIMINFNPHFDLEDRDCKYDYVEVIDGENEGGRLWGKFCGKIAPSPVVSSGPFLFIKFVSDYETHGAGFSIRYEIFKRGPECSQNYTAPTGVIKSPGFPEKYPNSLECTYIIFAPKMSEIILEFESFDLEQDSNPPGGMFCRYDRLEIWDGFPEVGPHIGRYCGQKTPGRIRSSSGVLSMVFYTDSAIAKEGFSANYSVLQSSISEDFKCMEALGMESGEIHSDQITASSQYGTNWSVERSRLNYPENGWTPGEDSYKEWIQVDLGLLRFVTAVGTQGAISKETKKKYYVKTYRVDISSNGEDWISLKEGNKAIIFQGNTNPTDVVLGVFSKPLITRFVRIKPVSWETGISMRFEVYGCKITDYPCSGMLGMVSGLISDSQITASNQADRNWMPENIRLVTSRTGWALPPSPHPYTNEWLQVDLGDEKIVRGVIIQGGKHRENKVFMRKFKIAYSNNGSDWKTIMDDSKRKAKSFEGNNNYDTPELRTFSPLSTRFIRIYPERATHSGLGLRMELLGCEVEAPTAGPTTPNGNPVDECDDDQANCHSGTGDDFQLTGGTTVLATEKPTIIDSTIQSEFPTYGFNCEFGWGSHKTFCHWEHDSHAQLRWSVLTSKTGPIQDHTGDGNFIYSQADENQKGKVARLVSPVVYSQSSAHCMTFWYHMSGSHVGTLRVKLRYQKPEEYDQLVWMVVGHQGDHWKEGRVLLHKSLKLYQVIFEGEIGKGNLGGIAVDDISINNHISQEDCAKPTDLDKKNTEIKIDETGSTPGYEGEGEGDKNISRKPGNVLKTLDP
Nature of the assay: precipitation of 35S-labelled growth factor from conditioned medium with NP-1-Ig on protein A sepharose, SDS-PAGE (FIG. 3). Here is the method:
293-T or 293EBNA cells were similarly transfected with plasmids encoding hVEGF₁₆₅, mVEGF-B₁₆₇, mVEGF-B₁₈₆, hVEGF-C, hVEGF-D, PlGF-1 or PlGF-2, and the transfected cells were metabolically labeled 24 hours post transfection with 100 μCi/ml Pro-mix TML-³⁵S (Amersham) for 6 to 7 hours. 10 μg/ml heparin was added to the labeling medium to facilitate the release of the heparin sulphate-binding growth factors from the cell surface and pericellular matrix. Metabolically labeled media, with the exception of the medium used for VEGF transfection, were immunodepleted of endogenous VEGF by immunoprecipitating with VEGF antibody for two hours. Similar amounts of media containing the metabolically labeled growth factors were then used for immunoprecipitation or for receptor binding analysis. Growth factors were incubated for 3 hours at room temperature with receptor-Igs in binding buffer (phosphate buffered saline (PBS), 0.5% BSA, 0.2% Tween 20). The sepharose beads were then washed once with ice cold binding buffer and three times with PBS and analyzed by 15% SDS-PAGE.
Immunoprecipitations were carried out using specific antibodies against VEGF₁₆₅, VEGF-B₁₆₇, VEGF-B₁₈₆, VEGF-C, VEGF-D and protein A sepharose. […] In contrast, no significant binding was detected between NP-1-Ig and hVEGF-D or PlGF-1. […]

The target in assay [3] is T1, soluble Neuropilin-1-Ig fusion protein …. Nature of the assay: precipitation of 35S-labelled growth factor from conditioned medium with NP-1-Ig on protein A sepharose, SDS-PAGE.
The target is the same in assay [4]. Nature of the assay: precipitation of 35S-labelled growth factor with NP-1-Ig on protein A sepharose, SDS-PAGE (FIG. 6).
Assay [5] shares this target. Put plainly: precipitation of 35S-labelled growth factor with NP-1-Ig on protein A sepharose, SDS-PAGE (FIG. 7).

Sequence of NP-1 expressed on PAE-NP-1 cells (O14786 22-923 limits assumed): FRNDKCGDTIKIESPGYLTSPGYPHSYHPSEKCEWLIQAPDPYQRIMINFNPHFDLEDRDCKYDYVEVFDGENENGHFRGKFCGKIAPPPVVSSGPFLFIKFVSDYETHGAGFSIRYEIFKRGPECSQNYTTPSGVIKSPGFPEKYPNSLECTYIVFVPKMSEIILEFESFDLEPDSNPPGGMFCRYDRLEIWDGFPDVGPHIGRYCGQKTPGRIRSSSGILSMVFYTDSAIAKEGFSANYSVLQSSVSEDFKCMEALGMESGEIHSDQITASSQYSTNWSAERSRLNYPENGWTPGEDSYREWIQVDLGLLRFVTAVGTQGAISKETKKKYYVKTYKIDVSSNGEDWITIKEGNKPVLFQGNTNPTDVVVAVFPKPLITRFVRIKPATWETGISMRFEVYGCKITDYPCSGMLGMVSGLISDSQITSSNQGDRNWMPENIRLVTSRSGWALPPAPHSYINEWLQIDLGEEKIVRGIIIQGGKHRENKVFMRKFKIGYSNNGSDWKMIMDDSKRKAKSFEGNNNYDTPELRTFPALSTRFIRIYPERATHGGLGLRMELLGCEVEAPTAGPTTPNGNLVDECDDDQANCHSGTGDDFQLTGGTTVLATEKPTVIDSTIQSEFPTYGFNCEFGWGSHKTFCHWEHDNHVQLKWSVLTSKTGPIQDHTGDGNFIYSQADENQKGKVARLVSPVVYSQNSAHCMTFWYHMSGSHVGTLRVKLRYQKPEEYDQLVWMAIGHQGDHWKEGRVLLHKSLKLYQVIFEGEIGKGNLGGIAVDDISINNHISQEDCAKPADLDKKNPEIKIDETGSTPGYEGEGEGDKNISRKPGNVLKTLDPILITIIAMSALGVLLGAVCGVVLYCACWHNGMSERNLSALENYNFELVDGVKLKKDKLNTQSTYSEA

Molecule “GST-VEGF-B167 exon 6B fusion protein (GST fused to amino acids 117-161 of mVEGF-B167) (from UniProt P49766 117-161)” showed a percent competition in assay [1] of 50%.

B1: PlGF-1 (ligand, UniProt P49763-2 19-149, looked up)
chain: LPAVPPQQWALSAGNGSSEVEVVPFQEVWGRSYCRALERLVDVVSEYPSEVEHMFSPSCVSLLRCTGCCGDENLHCVPVETANVTMQLLKIRSGDRPSYVELTFSQHVRCECRPLREKMKPERCGDAVPRR
notes: 35S labelled, from conditioned medium of transfected cells; also called placenta growth factor isoform 1
Consider B1, for which, in assay [2], the binding result is on record as “no binding”.

B2: mouse VEGF-B167 (ligand, UniProt P49766-2 22-188, looked up)
chain: PVSQFDGPSHQKKVVPWIDVYARATCQPREVVVPLSMELMGNVVKQLVPSCVTVQRCGGCCPDDGLECVPTGQHQVRMQILMIQYPSSQLGEMSLEEHSQCECRPKKKESAVKPDSPRILCPPCTQRRQRPDPRTCRCRCRRRRFLHCQGRGLELNPDTCRCRKPRK
notes: 35S metabolically labelled, from conditioned medium of transfected cells; also called mVEGF-B167
On to B2, for which, in assay [3], the binding result was “binds”.

B3: human VEGF165 (ligand, UniProt P15692-4 27-191, looked up)
chain: APMAEGGGQNHHEVVKFMDVYQRSYCHPIETLVDIFQEYPDEIEYIFKPSCVPLMRCGGCCNDEGLECVPTEESNITMQIMRIKPHQGQHIGEMSFLQHNKCECRPKKDRARQENPCGPCSERRKHLFVQDPQTCKCSCKNTDSRCKARQLELNERTCRCDKPRR
notes: also called hVEGF165; rhVEGF165
Regarding B3, the binding result in assay [3] was “binds”.

B4: mVEGF-BkEx1-5 (ligand, mouse, UniProt P49766 22-136, looked up)
chain: PVSQFDGPSHQKKVVPWIDVYARATCQPREVVVPLSMELMGNVVKQLVPSCVTVQRCGGCCPDDGLECVPTGQHQVRMQILMIQYPSSQLGEMSLEEHSQCECRPKKKESAVKPD
notes: domain: exons 1-5; also called murine VEGF-BkEx1-5; construct containing exons 1-5 of murine VEGF-B
For the molecule B4, the binding result in assay [4] is on record as “no binding”.

B5: human VEGF-C (full length) (ligand, UniProt P49767 32-419, looked up)
chain: FESGLDLSDAEPDAGEATAYASKDLEEQLRSVSSVDELMTVLYPEYWKMYKCQLRKGGWQHNREQANLNSRTEETIKFAAAHYNTEILKSIDNEWRKTQCMPREVCIDVGKEFGVATNTFFKPPCVSVYRCGGCCNSEGLQCMNTSTSYLSKTLFEITVPLSQGPKPVTISFANHTSCRCMSKLDVYRQVHSIIRRSLPATLPQCQAANKTCPTNYMWNNHICRCLAQEDFMFSSDAGDDSTDGFHDICGPNKELDEETCQCVCRAGLRPASCGPHKELDRNSCQCVCKNKLFPSQCGANREFDENTCQCVCKRTCPRNQPLNPGKCACECTESPQKCLLKGKKFHHQTCSCYRRPCTNRQKACEPGFSYSEEVCRCVPSYWKRPQMS
notes: 35S labelled, from conditioned medium of transfected cells; also called hVEGF-C; full length VEGF-C
With B5, the binding result in assay [5] is on record as “binds”.
